Measured values reported in PMC5913134, “The IL-33-PIN1-IRAK-M axis is critical for type 2 immunity in IL-33-induced allergic airway inflammation” (Nature Communications, 2018).

Biological target: PIN1 (GST-PIN1, GFP-PIN1, 15N-PIN1-WW) (UniProt Q13526)
Experiment: co-IP with anti-GFP, blot
Details: reference: wild type; sites S110

binding against the reference: lost
Substance: IRAK-M (transfected constructs and synthetic peptides) (from UniProt Q9Y616) S110A
